Experimental findings from patent publication US20250243265A1 (published 2025) are described below.

B1: 1F11 IgG (antibody, V domains shown)
VH: EVQLVESGGGLVQPGGSLRLSCAASGFTFSNTYISWVRQAPGKGLEWVASITPSSGSTDYADSVKGRFTISADTSKNTAYLQMNSLRAEDTAVYYCARTWLLRWVMDYWGQGTLVTVSS
VL: DIQMTQSPSSLSASVGDRVTITCRASQDVSTAVAWYQQKPGKAPKLLIYSAKFLYSGVPSRFSGSGSGTDFTLTISSLQPEDFATYYCQQSYTTPPTFGQGTKVEIK
B2: 1F11/2H5/3F5 triple mutant IgG (antibody, name in Kabat numbering, V domains shown)
VH: EVQLVESGGGLVQPGGSLRLSCAASGFTFSNTYISWVRQAPGKGLEWVASITPSSGQTDYADSVKGRFTISADTSKNTAYLQMNSLRAEDTAVYYCARTWLLRWVMDYWGQGTLVTVSS
VL: DIQMTQSPSSLSASVGDRVTITCRASQDVSTAVAWYQQKPGKAPKLLIYSAKFLYSGVPSRFSGSGSGTDFTLTISSLQPEDFATYYCQQSYTNPPTFGQGTKVEIK
notes: S52K put into the 2H5 light chain, paired with the 3F5 heavy chain; human kappa IgG1
B3: 1F11/Y102L T110A IgG (antibody, name in Kabat numbering, V domains shown)
VH: EVQLVESGGGLVQPGGSLRLSCAASGFTFSNTYISWVRQAPGKGLEWVASITPSSGSTDYADSVKGRFTISADTSKNTAYLQMNSLRAEDTAVYYCARTWLLRWVMDLWGQGTLVAVSS
VL: DIQMTQSPSSLSASVGDRVTITCRASQDVSTAVAWYQQKPGKAPKLLIYSAKFLYSGVPSRFSGSGSGTDFTLTISSLQPEDFATYYCQQSYTTPPTFGQGTKVEIK
notes: Human kappa IgG1
B4: 1F11/2C11/3F5 triple mutant IgG (antibody, name in Kabat numbering, V domains shown)
VH: EVQLVESGGGLVQPGGSLRLSCAASGFTFSNTYISWVRQAPGKGLEWVASITPSSGQTDYADSVKGRFTISADTSKNTAYLQMNSLRAEDTAVYYCARTWLLRWVMDYWGQGTLVTVSS
VL: DIQMTQSPSSLSASVGDRVTITCRASQDVSTAVAWYQQKPGKAPKLLIYSAKFLYSGVPSRFSGSGSGTDFTLTISSLQPEDFATYYCQQSYTQPPTFGQGTKVEIK
notes: S52K put into the 2C11 light chain, paired with the 3F5 heavy chain; human kappa IgG1
B5: 3F5/Y102L IgG (antibody, name in Kabat numbering, V domains shown)
VH: EVQLVESGGGLVQPGGSLRLSCAASGFTFSNTYISWVRQAPGKGLEWVASITPSSGQTDYADSVKGRFTISADTSKNTAYLQMNSLRAEDTAVYYCARTWLLRWVMDLWGQGTLVTVSS
VL: DIQMTQSPSSLSASVGDRVTITCRASQDVSTAVAWYQQKPGKAPKLLIYSASFLYSGVPSRFSGSGSGTDFTLTISSLQPEDFATYYCQQSYTTPPTFGQGTKVEIK
notes: Human kappa IgG1
B6: 1F11/Y102L IgG (antibody, V domains shown)
VH: EVQLVESGGGLVQPGGSLRLSCAASGFTFSNTYISWVRQAPGKGLEWVASITPSSGSTDYADSVKGRFTISADTSKNTAYLQMNSLRAEDTAVYYCARTWLLRWVMDLWGQGTLVTVSS
VL: DIQMTQSPSSLSASVGDRVTITCRASQDVSTAVAWYQQKPGKAPKLLIYSAKFLYSGVPSRFSGSGSGTDFTLTISSLQPEDFATYYCQQSYTTPPTFGQGTKVEIK
notes: Human kappa IgG1
B7: 3F5/Y102L T110A IgG (antibody, name in Kabat numbering, V domains shown)
VH: EVQLVESGGGLVQPGGSLRLSCAASGFTFSNTYISWVRQAPGKGLEWVASITPSSGQTDYADSVKGRFTISADTSKNTAYLQMNSLRAEDTAVYYCARTWLLRWVMDLWGQGTLVAVSS
VL: DIQMTQSPSSLSASVGDRVTITCRASQDVSTAVAWYQQKPGKAPKLLIYSASFLYSGVPSRFSGSGSGTDFTLTISSLQPEDFATYYCQQSYTTPPTFGQGTKVEIK
notes: Human kappa IgG1

The first test has as its target T1, K63-linked diubiquitin (Boston Biochem) (Homo sapiens (Human), UniProt P0CG48 1-76, isopeptide bond between the C-terminus of one ubiquitin and Lys63 of the other).
T1 construct: Two ubiquitin units; also called K63 diUb
The test can be described thus: western blot. The protocol: Non-specific binding sites on the membranes were blocked by incubation in 5% milk in PBST for 1 hour at 25° C. with shaking. […] The membranes were washed three times in PBST with shaking. The IgGs were detected by incubating the membrane in a 1:10,000 dilution of a goat anti-human Fc fragment-specific IR Dye 800CW-conjugated secondary antibody (Rockland Immunochemicals) in 5% milk in PBST for 30 minutes at 25° C. with shaking. The membranes were then washed three times in PBST followed by one wash in PBS.
A general note: Immunoblotting shows a protein as a band on a membrane.
On to B1, for which the binding result is reported as “no binding”.

The next test deals with linear diubiquitin (Boston Biochem) (Homo sapiens (Human), UniProt P0CG48 1-152). The test can be described thus: western blot, 1 µg/mL IgG.
As for B2, the binding result is “binds”.
Same read-out and setting: the result for B3 reads “binds”; that for B4, “binds”; that for B5, “binds”.
With B6, the binding result was “binds”.
As for B7, the binding result is “binds”.
